From paper PMC9360328, “Tenuous Transcriptional Threshold of Human Sex Determination. I. SRY and Swyer Syndrome at the Edge of Ambiguity”

Target: SRY HMG box WT (Homo sapiens, UniProt Q05066 56-141)
Experiment: FRET titration; 15 C, 25 nM DNA; FRET titration: 10 mM potassium phosphate, 10 mM Tris-HCl, 140 mM KCl, 1 mM EDTA, 1 mM DTT, pH 8.4, 15 C, 25 nM DNA; PGE: 10 nM DNA, 20 nM protein, 0.5x TBE, 4
Conditions: protein: recombinant; label: 5'-6-FAM (hexanyl linker) on upper strand; 5'-TAMRA (hexanyl linker) on lower strand; blunt

SRY HMG box WT, sequence (Q05066 56-141): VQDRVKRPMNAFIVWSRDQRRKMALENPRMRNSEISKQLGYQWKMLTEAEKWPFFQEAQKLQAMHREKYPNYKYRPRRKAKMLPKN

B1: 15-bp consensus SRY site, FRET-labeled (dsDNA)
DNA 1: TCGGTGATTGTTCAG
DNA 2: CTGAACAATCACCGA
With B1 the Kd was 10 ± 3 nM.
